Measured values taken from article PMC10543288, “Loss of Bmp2 impairs odontogenesis via dysregulating pAkt/pErk/GCN5/Dlx3/Sp7” (Research Square, 2023).

Target: T1, GST full-length Sp7 (mouse, UniProt Q8VI67 1-428)
T1 construct: Sp7 (Osterix, Osx), mouse cDNA, full length; also called GST-Sp7; Osterix
Test: co-IP; purified GST fusion proteins incubated together, immunoprecipitated with anti-Sp7, anti-Dlx3 or anti-GCN5 antibody and protein G agarose beads, IgG as negative control, detected by Western blotting
Details: both partners purified

T1 sequence (Q8VI67 whole entry): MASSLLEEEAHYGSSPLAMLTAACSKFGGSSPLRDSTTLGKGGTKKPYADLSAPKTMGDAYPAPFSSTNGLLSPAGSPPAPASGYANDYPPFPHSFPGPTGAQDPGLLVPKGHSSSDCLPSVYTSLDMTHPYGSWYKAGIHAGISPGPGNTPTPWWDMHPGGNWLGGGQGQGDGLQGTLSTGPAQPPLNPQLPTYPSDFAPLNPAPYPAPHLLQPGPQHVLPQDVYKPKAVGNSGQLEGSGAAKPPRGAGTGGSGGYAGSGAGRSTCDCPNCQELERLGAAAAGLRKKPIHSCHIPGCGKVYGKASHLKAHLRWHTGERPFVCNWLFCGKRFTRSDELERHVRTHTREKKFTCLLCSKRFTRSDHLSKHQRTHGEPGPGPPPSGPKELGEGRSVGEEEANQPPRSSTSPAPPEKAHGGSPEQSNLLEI

- binding result: binds
B1: GST full-length Dlx3 (natural protein)
chain: not shown
notes: Dlx3, mouse cDNA, full length; also called GST-Dlx3
